Data from paper PMC5062964.

T1: Ets-1ΔN331 (minimal ETS domain) (mouse (murine)?, UniProt P27577 331-440)
T1 sequence: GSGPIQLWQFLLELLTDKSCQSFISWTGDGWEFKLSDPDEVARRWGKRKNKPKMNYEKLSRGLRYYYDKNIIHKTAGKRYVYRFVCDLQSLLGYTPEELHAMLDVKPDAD

B1: SC1 hemi-methylated, forward (5'-GGAA-3' strand) (dsDNA)
DNA 1: CGGCCAAGCCGGAAGTGAGTGCC
DNA 2: GGCACTCACTTCCGGCTTGGCCG
modifications: 5-methyl-dC at strand 1 position 10 (CpG)
B2: SC1 unmethylated (dsDNA)
DNA 1: CGGCCAAGCCGGAAGTGAGTGCC
DNA 2: GGCACTCACTTCCGGCTTGGCCG

How the values were obtained:
PU.1ΔN167 (ETS domain) = PU.1ΔN167 (ETS domain) (mouse (murine), UniProt P17433 167-272); test: competitive fluorescence anisotropy
[1] = target: T1, Ets-1ΔN331 (minimal ETS domain); test: competitive fluorescence anisotropy

| Binder | Kd (PU.1ΔN167 (ETS domain)) [nM] | Kd [1] [nM] |
| --- | --- | --- |
| B1 | 1.5 ± 0.9 | – |
| B2 | 0.32 ± 0.17 | 0.14 ± 0.03 |
